From patent US20090239215A1

Target: MBP-MT2 fusion protein (maltose binding protein fused to two copies of metallothionein), without gold (mouse) (UniProt P02802)
Assay: STEM mass measurement (PCMass25); expected 260 kDa for the antibody with two MBP-MT2

Chain of UniProt P02802 (P02802 other isoform, or with tags, fused parts or gaps): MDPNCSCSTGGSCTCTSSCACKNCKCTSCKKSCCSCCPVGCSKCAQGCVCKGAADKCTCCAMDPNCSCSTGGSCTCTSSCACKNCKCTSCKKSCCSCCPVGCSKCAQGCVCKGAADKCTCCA

mean STEM mass of the antibody complex particles: 205 kDa
Substance: commercially available monoclonal IgG2a MBP antibody (New England Biolabs)
